The assay addresses PLCβ2 (Homo sapiens, UniProt Q00722). As to the kind of experiment: fluorescence titration.

PLCβ2, sequence (Q00722 whole entry): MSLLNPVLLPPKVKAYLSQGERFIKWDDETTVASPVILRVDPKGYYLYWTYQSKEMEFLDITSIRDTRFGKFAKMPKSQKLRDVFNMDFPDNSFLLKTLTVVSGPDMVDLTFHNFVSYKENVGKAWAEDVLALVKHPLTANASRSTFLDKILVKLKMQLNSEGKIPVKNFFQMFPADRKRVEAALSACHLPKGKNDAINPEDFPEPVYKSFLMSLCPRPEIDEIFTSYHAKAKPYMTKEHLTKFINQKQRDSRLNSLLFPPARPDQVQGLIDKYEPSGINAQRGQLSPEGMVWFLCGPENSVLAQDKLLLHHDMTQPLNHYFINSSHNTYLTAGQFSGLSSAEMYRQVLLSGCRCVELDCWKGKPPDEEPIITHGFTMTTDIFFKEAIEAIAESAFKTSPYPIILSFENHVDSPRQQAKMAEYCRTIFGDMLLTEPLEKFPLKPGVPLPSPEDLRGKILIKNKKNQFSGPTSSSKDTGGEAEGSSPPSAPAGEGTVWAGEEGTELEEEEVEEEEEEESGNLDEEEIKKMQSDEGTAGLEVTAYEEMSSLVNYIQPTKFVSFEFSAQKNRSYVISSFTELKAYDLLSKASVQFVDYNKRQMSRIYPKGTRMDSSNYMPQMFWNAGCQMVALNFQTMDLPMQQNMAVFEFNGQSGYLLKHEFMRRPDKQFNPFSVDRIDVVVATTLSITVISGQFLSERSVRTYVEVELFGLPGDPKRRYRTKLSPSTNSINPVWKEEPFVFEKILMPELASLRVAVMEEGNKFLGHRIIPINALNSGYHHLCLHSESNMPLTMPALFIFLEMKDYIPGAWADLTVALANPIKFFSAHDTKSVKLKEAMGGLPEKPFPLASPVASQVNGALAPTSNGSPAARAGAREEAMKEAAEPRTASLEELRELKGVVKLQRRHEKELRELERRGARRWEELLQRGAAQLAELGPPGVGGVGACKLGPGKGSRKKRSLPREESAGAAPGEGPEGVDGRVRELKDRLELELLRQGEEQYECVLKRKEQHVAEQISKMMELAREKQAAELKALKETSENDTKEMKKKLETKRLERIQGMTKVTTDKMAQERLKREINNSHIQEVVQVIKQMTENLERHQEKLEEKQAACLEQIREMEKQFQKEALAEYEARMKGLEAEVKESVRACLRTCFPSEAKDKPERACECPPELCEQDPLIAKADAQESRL

B1: Gαq (activated) (protein)
chain: MTLESIMACCLSEEAKEARRINDEIERQLRRDKRDARRELKLLLLGTGESGKSTFIKQMRIIHGSGYSDEDKRGFTKLVYQNIFTAMQAMIRAMDTLKIPYKYEHNKAHAQLVREVDVEKVSAFENPYVDAIKSLWNDPGIQECYDRRREYQLSDSTKYYLNDLDRVADPSYLPTQQDVLRVRVPTTGIIEYPFDLQSVIFRMVDVGGQRSERRKWIHCFENVTSIMFLVALSEYDQVLVESDNENRMEESKALFRTIITYPWFQNSSVILFLNKKDLLEEKIMYSHLVDYFPEYDGPQRDAQAAREFILKMFVDLNPDSDKIIYSHFTCATDTENIRFVFAAVKDTILQLNLKEYNLV
modifications: activated Gαq, with γ-synuclein
In turn, B1 showed a Kd of 0.9 nM.

A word on the Kd: it is a measure of binding affinity in units of concentration. Low readings indicate higher affinity, high ones lower affinity.

Values taken from PMC3414502 (2012).
